This is an account of results in patent US11814435B2, “Therapeutic antibodies and their uses” (PFIZER INC., priority 2015, dated 2023).

One experiment has as its target T1, hBCMA (human BCMA) (Homo sapiens, UniProt Q02223).
T1 sequence (Q02223 1-184): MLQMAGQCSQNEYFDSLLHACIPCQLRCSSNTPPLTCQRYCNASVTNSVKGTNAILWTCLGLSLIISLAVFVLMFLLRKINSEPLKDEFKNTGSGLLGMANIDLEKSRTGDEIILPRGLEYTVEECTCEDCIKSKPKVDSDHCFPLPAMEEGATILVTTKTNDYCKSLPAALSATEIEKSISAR
The experiment in a line: Kinetics and affinity of hBCMA/human IgG interactions by SPR (Bio-Rad Proteon XPR36). Format: binding. The following applies: huBCMA. How it is done: All experiments were performed on a Bio-Rad Proteon XPR36 surface Plasmon resonance biosensor (Bio-Rad, Hercules, Calif.). An array of anti-BCMA antibodies was prepared using an amine-coupling method on a Bio-Rad GLC Sensor Chip similar to that described in Abdiche, et al., Anal. Biochem. 411, 139-151 (2011). The analysis temperature for the immobilization was 25° C. and the running buffer was HBS-T+(10 mM HEPES, 150 mM NaCl, 0.05% Tween-20, pH 7.4). Channels were activated in the analyte (horizontal) direction by injecting a mixture of 1 mM ECD and 0.25 mM NHS for 3 minutes at a flow rate of 30 μL/min. IgGs were immobilized on the activated spots by injecting them in the ligand (vertical) direction at 20 μg/mL in 10 mM Acetate pH 4.5 buffer for 1.5 minutes at […]. The activated surfaces were blocked by injecting 1M ethanolamine, pH 8.5 in the analyte direction for 3 minutes at 30 μL/min.
The analysis temperature for the hBCMA binding analysis was 37° C. or 25° C. in a running buffer of HBS-T+, supplemented with 1 mg/mL BSA. A kinetic titration method was employed for the interaction analysis as described in Abdiche, et al. The hBCMA (human BCMA) analyte was injected in the analyte direction using a series of injections from low to high concentration. The concentrations used were 0.08 nM, 0.4 nM, 2 nM, 10 nM and 50 nM (a 5-membered series, with a 5-fold dilution factor and top concentration of 50 nM). The association time for a given analyte dilution was two minutes. Immediately after the 50 nM hBCMA injection, dissociation was monitored for 2 hours. Prior to the hBCMA analyte injections, buffer was injected 5 times using the same association and dissociation times at the hBCMA analyte cycles to prepare a buffer blank sensorgram for double-referencing purposes (double referencing as described in Myszka, J. Mol. Recognit. 12, 279-284 (1999).
The sensorgrams were double-referenced and fit to a 1:1 Langmuir with mass transport kinetic titration model in BIAevaluation Software version 4.1.1 (GE Lifesciences, Piscataway, N.J.). The sensorgrams and fits are shown in FIG. 1, and the kinetics and affinity parameters for various anti-BCMA antibodies of the present invention are shown in Tables 6A-6C.
On the technique in general: Surface plasmon resonance follows binding to a sensor surface in real time, without labels.

The next experiment has as its system cyBCMA. The experiment in a line: Kinetics and affinity of cyBCMA/human IgG interactions by SPR (Bio-Rad Proteon XPR36). Format: binding, cynomolgus.

B1: L1.GDF/L3.NY/H3.AL: anti-BCMA antibody (antibody, V domains shown)
VH: EVQLLESGGGLVQPGGSLRLSCAASGFTFGSYAMTWVRQAPGKGLEWVSAISGSGGNTFYADSVKGRFTISRDNSKNTLYLQMNSLRAEDTAVYYCARVSPIAALMDYWGQGTLVTVSS
VL: EIVLTQSPGTLSLSPGERATLSCRASQSVGDFYLAWYQQKPGQAPRLLIYGASSRATGIPDRFSGSGSGTDFTLTISRLEPEDFAVYYCQHYNYPPSFTFGQGTKVEIK
On to B1, for which, in the experiment with hBCMA (human BCMA), the “ka (1/Ms) huBCMA @ 25° C.” value was found to be 907000 M⁻¹ s⁻¹ and the “kd (1/s) huBCMA @25° C.” value came out at 0.00403 s⁻¹. In the experiment with cyBCMA, the “ka (1/Ms) cyBCMA @ 25° C.” value turned out to be 900000 M⁻¹ s⁻¹ and the “kd (1/s) cyBCMA @25° C.” value was found to be 0.0219 s⁻¹.

B2: L3.PY/H2.DY: anti-BCMA antibody (antibody, V domains shown)
VH: EVQLLESGGGLVQPGGSLRLSCAASGFTFGSYAMTWVRQAPGKGLEWVSAIDYSGGNTFYADSVKGRFTISRDNSKNTLYLQMNSLRAEDTAVYYCARVSPIASGMDYWGQGTLVTVSS
VL: EIVLTQSPGTLSLSPGERATLSCRASQSVSSSYLAWYQQKPGQAPRLLIYGASSRATGIPDRFSGSGSGTDFTLTISRLEPEDFAVYYCQHYPYPPSFTFGQGTKVEIK
Take B2: in the experiment with hBCMA (human BCMA), the “ka (1/Ms) huBCMA @ 37° C.” value came out at 2.6e+06 M⁻¹ s⁻¹ and the “kd (1/s) huBCMA @37° C.” value came to 0.00138 s⁻¹. In addition, in the experiment with cyBCMA, the “ka (1/Ms) cyBCMA @ 37° C.” value came to 2.24e+06 M⁻¹ s⁻¹ and the “kd (1/s) cyBCMA @37° C.” value turned out to be 0.00618 s⁻¹.

B3: L3.PY/H3.AE: anti-BCMA antibody (antibody, V domains shown)
VH: EVQLLESGGGLVQPGGSLRLSCAASGFTFGSYAMTWVRQAPGKGLEWVSAISGSGGNTFYADSVKGRFTISRDNSKNTLYLQMNSLRAEDTAVYYCARVSPIAAEMDYWGQGTLVTVSS
VL: EIVLTQSPGTLSLSPGERATLSCRASQSVSSSYLAWYQQKPGQAPRLLIYGASSRATGIPDRFSGSGSGTDFTLTISRLEPEDFAVYYCQHYPYPPSFTFGQGTKVEIK
With B3, in the experiment with hBCMA (human BCMA), the “ka (1/Ms) huBCMA @ 37° C.” value is 3.29e+06 M⁻¹ s⁻¹ and the “kd (1/s) huBCMA @37° C.” value worked out at 0.00139 s⁻¹. Also, in the experiment on cyBCMA, the “ka (1/Ms) cyBCMA @ 37° C.” value was found to be 2.82e+06 M⁻¹ s⁻¹ and the “kd (1/s) cyBCMA @37° C.” value came out at 0.00504 s⁻¹.

B4: L3.PY/H2.QR: anti-BCMA antibody (antibody, V domains shown)
VH: EVQLLESGGGLVQPGGSLRLSCAASGFTFGSYAMTWVRQAPGKGLEWVSAISGSGGNTFYADQRKGRFTISRDNSKNTLYLQMNSLRAEDTAVYYCARVSPIASGMDYWGQGTLVTVSS
VL: EIVLTQSPGTLSLSPGERATLSCRASQSVSSSYLAWYQQKPGQAPRLLIYGASSRATGIPDRFSGSGSGTDFTLTISRLEPEDFAVYYCQHYPYPPSFTFGQGTKVEIK
As for B4, in the experiment with hBCMA (human BCMA), the “ka (1/Ms) huBCMA @ 37° C.” value is 2.56e+06 M⁻¹ s⁻¹ and the “kd (1/s) huBCMA @37° C.” value stood at 0.00119 s⁻¹. Besides, in the experiment with cyBCMA, the “ka (1/Ms) cyBCMA @ 37° C.” value stood at 2.18e+06 M⁻¹ s⁻¹ and the “kd (1/s) cyBCMA @37° C.” value amounted to 0.00658 s⁻¹.

B5: L3.PY/L1.PS/H2.QR: anti-BCMA antibody (antibody, V domains shown)
VH: EVQLLESGGGLVQPGGSLRLSCAASGFTFGSYAMTWVRQAPGKGLEWVSAISGSGGNTFYADQRKGRFTISRDNSKNTLYLQMNSLRAEDTAVYYCARVSPIASGMDYWGQGTLVTVSS
VL: EIVLTQSPGTLSLSPGERATLSCRASQSVSSSYPSWYQQKPGQAPRLLIYGASSRATGIPDRFSGSGSGTDFTLTISRLEPEDFAVYYCQHYPYPPSFTFGQGTKVEIK
Regarding B5, in the experiment with hBCMA (human BCMA), the “ka (1/Ms) huBCMA @ 37° C.” value amounted to 3.97e+06 M⁻¹ s⁻¹ and the “kd (1/s) huBCMA @37° C.” value was determined as 0.103 s⁻¹. In the experiment on cyBCMA, the “ka (1/Ms) cyBCMA @ 37° C.” value was found to be 525000 M⁻¹ s⁻¹ and the “kd (1/s) cyBCMA @37° C.” value was 0.00067 s⁻¹.

B6: L3.PY/H2.LT: anti-BCMA antibody (antibody, V domains shown)
VH: EVQLLESGGGLVQPGGSLRLSCAASGFTFGSYAMTWVRQAPGKGLEWVSAISLTGGNTFYADSVKGRFTISRDNSKNTLYLQMNSLRAEDTAVYYCARVSPIASGMDYWGQGTLVTVSS
VL: EIVLTQSPGTLSLSPGERATLSCRASQSVSSSYLAWYQQKPGQAPRLLIYGASSRATGIPDRFSGSGSGTDFTLTISRLEPEDFAVYYCQHYPYPPSFTFGQGTKVEIK
For the molecule B6, in the experiment with hBCMA (human BCMA), the “ka (1/Ms) huBCMA @ 37° C.” value was found to be 2.4e+06 M⁻¹ s⁻¹ and the “kd (1/s) huBCMA @37° C.” value amounted to 0.00129 s⁻¹. In the experiment on cyBCMA, the “ka (1/Ms) cyBCMA @ 37° C.” value worked out at 2.09e+06 M⁻¹ s⁻¹ and the “kd (1/s) cyBCMA @37° C.” value stood at 0.00757 s⁻¹.

B7: L3.PY/H2.HA: anti-BCMA antibody (antibody, V domains shown)
VH: EVQLLESGGGLVQPGGSLRLSCAASGFTFGSYAMTWVRQAPGKGLEWVSAISHAGGNTFYADSVKGRFTISRDNSKNTLYLQMNSLRAEDTAVYYCARVSPIASGMDYWGQGTLVTVSS
VL: EIVLTQSPGTLSLSPGERATLSCRASQSVSSSYLAWYQQKPGQAPRLLIYGASSRATGIPDRFSGSGSGTDFTLTISRLEPEDFAVYYCQHYPYPPSFTFGQGTKVEIK
B7: in the experiment with hBCMA (human BCMA), the “ka (1/Ms) huBCMA @ 37° C.” value came out at 2.43e+06 M⁻¹ s⁻¹ and the “kd (1/s) huBCMA @37° C.” value was 0.00147 s⁻¹. Further, in the experiment with cyBCMA, the “ka (1/Ms) cyBCMA @ 37° C.” value was found to be 1.99e+06 M⁻¹ s⁻¹ and the “kd (1/s) cyBCMA @37° C.” value turned out to be 0.00755 s⁻¹.

B8: L3.PY/H2.QL: anti-BCMA antibody (antibody, V domains shown)
VH: EVQLLESGGGLVQPGGSLRLSCAASGFTFGSYAMTWVRQAPGKGLEWVSAISGSGGNTFYADQLKGRFTISRDNSKNTLYLQMNSLRAEDTAVYYCARVSPIASGMDYWGQGTLVTVSS
VL: EIVLTQSPGTLSLSPGERATLSCRASQSVSSSYLAWYQQKPGQAPRLLIYGASSRATGIPDRFSGSGSGTDFTLTISRLEPEDFAVYYCQHYPYPPSFTFGQGTKVEIK
With B8, in the experiment with hBCMA (human BCMA), the “ka (1/Ms) huBCMA @ 37° C.” value stood at 2.64e+06 M⁻¹ s⁻¹ and the “kd (1/s) huBCMA @37° C.” value was determined as 0.00218 s⁻¹. Besides, in the experiment on cyBCMA, the “ka (1/Ms) cyBCMA @ 37° C.” value was determined as 2.05e+06 M⁻¹ s⁻¹ and the “kd (1/s) cyBCMA @37° C.” value was determined as 0.0126 s⁻¹.

B9: L3.PY/H3.YA: anti-BCMA antibody (antibody, V domains shown)
VH: EVQLLESGGGLVQPGGSLRLSCAASGFTFGSYAMTWVRQAPGKGLEWVSAISGSGGNTFYADSVKGRFTISRDNSKNTLYLQMNSLRAEDTAVYYCARVSPIYAGMDYWGQGTLVTVSS
VL: EIVLTQSPGTLSLSPGERATLSCRASQSVSSSYLAWYQQKPGQAPRLLIYGASSRATGIPDRFSGSGSGTDFTLTISRLEPEDFAVYYCQHYPYPPSFTFGQGTKVEIK
As to B9, in the experiment with hBCMA (human BCMA), the “ka (1/Ms) huBCMA @ 37° C.” value worked out at 3.15e+06 M⁻¹ s⁻¹ and the “kd (1/s) huBCMA @37° C.” value came to 0.00118 s⁻¹. Moreover, in the experiment on cyBCMA, the “ka (1/Ms) cyBCMA @ 37° C.” value was 2.87e+06 M⁻¹ s⁻¹ and the “kd (1/s) cyBCMA @37° C.” value came out at 0.0054 s⁻¹.

B10: L3.PY/H2.YQ: anti-BCMA antibody (antibody, V domains shown)
VH: EVQLLESGGGLVQPGGSLRLSCAASGFTFGSYAMTWVRQAPGKGLEWVSAISYQGGNTFYADSVKGRFTISRDNSKNTLYLQMNSLRAEDTAVYYCARVSPIASGMDYWGQGTLVTVSS
VL: EIVLTQSPGTLSLSPGERATLSCRASQSVSSSYLAWYQQKPGQAPRLLIYGASSRATGIPDRFSGSGSGTDFTLTISRLEPEDFAVYYCQHYPYPPSFTFGQGTKVEIK
For B10, in the experiment with hBCMA (human BCMA), the “ka (1/Ms) huBCMA @ 37° C.” value amounted to 2.58e+06 M⁻¹ s⁻¹ and the “kd (1/s) huBCMA @37° C.” value was 0.00156 s⁻¹. For the same molecule, in the experiment with cyBCMA, the “ka (1/Ms) cyBCMA @ 37° C.” value was determined as 2.46e+06 M⁻¹ s⁻¹ and the “kd (1/s) cyBCMA @37° C.” value was determined as 0.00621 s⁻¹.

B11: L1.GDF/L3.NY/H3.AP: anti-BCMA antibody (antibody, V domains shown)
VH: EVQLLESGGGLVQPGGSLRLSCAASGFTFGSYAMTWVRQAPGKGLEWVSAISGSGGNTFYADSVKGRFTISRDNSKNTLYLQMNSLRAEDTAVYYCARVSPIAAPMDYWGQGTLVTVSS
VL: EIVLTQSPGTLSLSPGERATLSCRASQSVGDFYLAWYQQKPGQAPRLLIYGASSRATGIPDRFSGSGSGTDFTLTISRLEPEDFAVYYCQHYNYPPSFTFGQGTKVEIK
With B11, in the experiment with hBCMA (human BCMA), the “ka (1/Ms) huBCMA @ 25° C.” value is 1.41e+06 M⁻¹ s⁻¹ and the “kd (1/s) huBCMA @25° C.” value was found to be 0.00141 s⁻¹. For the same molecule, in the experiment on cyBCMA, the “ka (1/Ms) cyBCMA @ 25° C.” value turned out to be 1.36e+06 M⁻¹ s⁻¹ and the “kd (1/s) cyBCMA @25° C.” value is 0.00702 s⁻¹.
